{"source": "paper PMC2944808", "about": "(2010)", "binders": {"B1": {"name": "CV2 (protein)", "chain": "not shown"}}, "biological_target": "T1, CHRD_VWC2 (Mus musculus (Mouse), UniProt Q9Z0E2)", "T1 chain": "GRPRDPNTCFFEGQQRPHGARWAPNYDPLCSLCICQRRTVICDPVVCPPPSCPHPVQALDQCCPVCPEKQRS", "assay": "SPR, chordin VWC immobilised", "data": [{"binder": "B1", "values": [{"measurement": "Kd", "value": 145, "unit": "nM"}]}]}
